From article PMC1557824

T1: PpZTA1 (zeta crystallin / quinone oxidoreductase), recombinant (Pichia pastoris, UniProt F2QTB9 1-336)
T1 sequence: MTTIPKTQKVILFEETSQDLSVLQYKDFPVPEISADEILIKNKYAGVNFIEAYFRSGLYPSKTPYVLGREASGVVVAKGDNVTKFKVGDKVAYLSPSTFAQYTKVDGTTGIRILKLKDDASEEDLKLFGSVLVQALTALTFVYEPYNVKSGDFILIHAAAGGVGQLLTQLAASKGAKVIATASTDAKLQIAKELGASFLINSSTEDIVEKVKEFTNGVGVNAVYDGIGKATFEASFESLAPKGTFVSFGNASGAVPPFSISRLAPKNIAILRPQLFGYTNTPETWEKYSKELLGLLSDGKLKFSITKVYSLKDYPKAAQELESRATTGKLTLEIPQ

B1: 229 (ssDNA)
DNA: GAATACTGCTGATAGCCTAACGTTCATGATCAAAATTTAACTGTTCTAACCCCT
B2: 174 (ssDNA)
DNA: ACTTGACAGCAATATATAAACAGAAGGAAGCTGCCCTGTCTTAAACCTTTTTTTTTATCA
B3: 288 (ssDNA)
DNA: ACCCGCTTTTTGGATGATTATGCATTGTCTCCACATTGTATGCTTCCAAGATTCTGGTGG

Experiments:
[1] = target: recombinant Pichia pastoris zeta crystallin (PpZTA1) (Pichia pastoris); test: SEC
[2] = target: T1, PpZTA1 (zeta crystallin / quinone …); test: EMSA

Row | Molecule | stoichiometry N [1] | Kd [2]
1 | recombinant Pichia pastoris zeta crystallin (PpZTA1) (natural protein) | 2 | –
2 | B1 | – | 0.2 nM
3 | B2 | – | 0.1 nM
4 | B3 | – | 0.9 nM
